Experimental data taken from patent US20040110684.

Molecular target: synthetic peptides derived from the caveolin scaffolding domain (CSD)

B1: endothelial nitric oxide synthase (eNOS), endogenous, human umbilical vein endothelial cells (HUVECs) (protein)
chain: GNLKSVAQEPGPPCGLGLGLGLGLCGKQGPATPAPEPSRAPASLLPPAPEHSPPSSPLTQPPEGPKFPRVKNWEVGSITYDTLSAQAQQDGPCTPRRCLGSLVFPRKLQGRPSPGPPAPEQLLSQARDFINQYYSSIKRSGSQAHEQRLQEVEAEVAATGTYQLRESELVFGAKQAWRNAPRCVGRIQWGKLQVFDARDCRSAQEMFTYICNHIKYATNRGNLRSAITVFPQRCPGRGDFRIWNSQLVRYAGYRQQDGSVRGDPANVEITELCIQHGWTPGNGRFDVLPLLLQAPDDPPELFLLPPELVLEVPLEHPTLEWFAALGLRWYALPAVSNMLLEIGGLEFPAAPFSGWYMSTEIGTRNLCDPHRYNILEDVAVCMDLDTRTTSSLWKDKAAVEINVAVLHSYQLAKVTIVDHHAATASFMKHLENEQKARGGCPADWAWIVPPISGSLTPVFHQEMVNYFLSPAFRYQPDPWKGSAAKGTGITRKKTFKEVANAVKISASLMGTVMAKRVKATILYGSETGRAQSYAQQLGRLFRKAFDPRVLCMDEYDVVSLEHETLVLVVTSTFGNGDPPENGESFAAALMEMSGPYNSSPRPEQHKSYKIRFNSISCSDPLVSSWRRKRKESSNTDSAGALGTLRFCVFGLGSRAYPHFCAFARAVDTRLEELGGERLLQLGQGDELCGQEEAFRGWAQAAFQAACETFCVGEDAKAAARDIFSPKRSWKRQRYRLSAQAEGLQLLPGLIHVHRRKMFQATIRSVENLQSSKSTRATILVRLDTGGQEGLQYQPGDHIGVCPPNRPGLVEALLSRVEDPPAPTEPVAVEQLEKGSPGGPPPGWVRDPRLPPCTLRQALTFFLDITSPPSPQLLRLLSTLAEEPREQQELEALSQDPRRYEEWKWFRCPTLLEVLEQFPSVALPAPLLLTQLPLLQPRYYSVSSAPSTHPGEIHLTVAVLAYRTQDGLGPLHYGVCSTWLSQLKPGDPVPCFIRGAPSFRLPPDPSLPCILVGPGTGIAPFRGFWQERLHDIESKGLQPTPMTLVFGCRCSQLDHLYRDEVQNAQQRGVFGRVLTAFSREPDNPKTYVQDILRTELAAEVHRVLCLERGHMFVCGDVTMATNVLQTVQRILATEGDMELDEAGDVIGVLRDQQRYHEDIFGLTLRTQEVTSRIRTQSFSLQERQLRGAVPWAFDPPGSDTNSP
B1 was tested, and the “phosphorylation of eNOS (Ser1177) in atorvastatin-treated HUVECs, immunoblot” value was “blocked the phosphorylation of eNOS”.
